Results as given in US20250368742A1 (D2M BIOTHERAPEUTICS, published 2025).
Where a chain is given by its changes, count along the chain named. Each block holds one binder with its values, some of them ahead of it.

Legend:
human MICA002 on cells [1] = biological target: T1, human MICA002 on cells (human); assay: flow cytometry, CHO-MICA002 cells
T1 chain: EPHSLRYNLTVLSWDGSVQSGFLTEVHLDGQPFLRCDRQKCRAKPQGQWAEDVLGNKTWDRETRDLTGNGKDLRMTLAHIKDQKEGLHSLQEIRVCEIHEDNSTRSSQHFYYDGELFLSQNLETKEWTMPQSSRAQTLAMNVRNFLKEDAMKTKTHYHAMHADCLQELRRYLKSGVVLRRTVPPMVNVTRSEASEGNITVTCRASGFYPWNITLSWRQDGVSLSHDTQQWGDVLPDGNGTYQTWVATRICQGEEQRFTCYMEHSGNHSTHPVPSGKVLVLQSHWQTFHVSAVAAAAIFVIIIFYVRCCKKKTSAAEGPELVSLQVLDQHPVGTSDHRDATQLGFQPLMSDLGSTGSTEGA

human MICA002 on cells [2] = biological target: T1, human MICA002 on cells; assay: flow cytometry, CHO-MICA002 cells
human MICA004 on cells = biological target: T2, human MICA004 on cells (human); assay: flow cytometry, CHO-MICA004 cells
T2 construct: whole, on cells; also called CHO-MICA004; C1R-MICA004

human MICB005 on cells = biological target: T3, human MICB005 on cells (human); assay: flow cytometry, CHO-MICB005 cells
T3 construct: whole, on cells; also called CHO-MICB005; C1R-MICB005

MICA002-ECD-HISAvi = biological target: T4, MICA002-ECD-HISAvi (human, UniProt Q29983 24-308); assay: SPR (Carterra); antibody captured by anti-human Fc, monomeric ECD antigen injected
T4 construct: also called MICA002 polypeptide
T4 chain: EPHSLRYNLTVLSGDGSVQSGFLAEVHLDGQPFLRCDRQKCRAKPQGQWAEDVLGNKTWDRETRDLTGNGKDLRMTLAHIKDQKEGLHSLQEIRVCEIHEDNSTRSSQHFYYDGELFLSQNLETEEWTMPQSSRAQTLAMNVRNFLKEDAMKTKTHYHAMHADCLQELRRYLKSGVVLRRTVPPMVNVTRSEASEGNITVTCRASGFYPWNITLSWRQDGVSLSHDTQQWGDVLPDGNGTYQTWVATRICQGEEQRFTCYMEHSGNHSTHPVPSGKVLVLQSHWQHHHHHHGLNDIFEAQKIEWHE
Protocol: (§1) The dissociation kinetics were monitored for approximately 10 minutes. The chip surface was regenerated between binding cycles with 10 mM glycine HCl, pH 1.7. Binding kinetics were analyzed using software supplied by the manufacturer.

MICA004-ECD-HISAvi = biological target: T5, MICA004-ECD-HISAvi (human); assay: as above
T5 construct: also called MICA004 polypeptide
T5 chain: T4 chain with G14W, C36Y, L122V, M129V, K173E, G175S, T181R, G206S, W210R, S215T
Protocol: as §1

MICA008-ECD-HISAvi = biological target: T6, MICA008-ECD-HISAvi (human); assay: as above
T6 construct: Two sources under one name in the two kinetic assays; also called MICA008 polypeptide
T6 chain: T4 chain with G14W, C36Y, M129V, K173E, G206S, W210R, T213I, S215T, Q251R
Protocol: as §1

MICB005-ECD-HISAvi = biological target: T7, MICB005-ECD-HISAvi (human, UniProt Q29980 24-309); assay: as above
T7 construct: Two sources under one name in the two kinetic assays; also called MICB005 polypeptide
T7 sequence: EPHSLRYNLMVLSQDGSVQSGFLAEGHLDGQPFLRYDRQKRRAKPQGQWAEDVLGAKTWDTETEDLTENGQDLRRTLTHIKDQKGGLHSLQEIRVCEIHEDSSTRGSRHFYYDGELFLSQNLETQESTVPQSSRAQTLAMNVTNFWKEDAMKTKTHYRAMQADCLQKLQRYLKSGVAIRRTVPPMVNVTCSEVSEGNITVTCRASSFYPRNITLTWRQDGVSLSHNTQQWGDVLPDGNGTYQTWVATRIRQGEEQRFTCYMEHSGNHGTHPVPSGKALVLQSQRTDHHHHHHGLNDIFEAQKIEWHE
Protocol: as §1

EC50 (read off the curve) (human MICA002 on cells [1]): ~0.6 µg/mL
B1: h36B3GA (antibody, V domains shown)
VH: QVQLVQSGAEVKKPGASVKVSCKASGYAFTKYNFYWVRQAPGQGLEWIGYIDPYFGGTVYNQKFKGKATLTVDKSTSTAYMELRSLRSDDTAVYYCATTDAYSLFTYWGQGTLVTVSS
VL: DIQMTQSPSSLSASVGDRVTITCRASQDISNYLNWYQQTPGKAVKLLIYYTSRLHSGVPSRFSGSGSGTDYTLTISSLQPEDIATYFCLQGNTLPFTFGQGTKLEIK
notes: humanized #36 variant; the text writes h36B3(GA); copies: 2 + 2

EC50 (human MICA002 on cells [2]): 1.26 µg/mL
EC50 (human MICA004 on cells): 7.12 µg/mL
EC50 (human MICB005 on cells): 2.77 µg/mL
Kd (MICA002-ECD-HISAvi): 61.4 nM
Kd (MICA004-ECD-HISAvi): 156 nM
Kd (MICA008-ECD-HISAvi): 255 nM
Kd (MICB005-ECD-HISAvi): 158 nM
B2: D2M001-001 (antibody, V domains shown)
VH: QVQLVQSGAEVKKPGSSVKVSCKASGYTFSHHSISWVRQAPGQGLEWIGGIYPGKIKTNYAQKFQGRATLTADKSTSTAYMELSSLRSEDTAVYYCATLYGNYEAYWGQGTLVTVSS
VL: DIQMTQSPSSLSASVGDRVTITCRASENIYGALNWYQQKPGKSPKLLIYGTTSLQSGVPSRFSGSGSGRDYTLTISSLQPEDFATYYCQNVLTTPPWTFGGGTKVEIK
notes: only the CDRs are tied to the name in the text; copies: 2 + 2
